In patent US10501552B2, “Multivalent molecules comprising DR5-binding domains” (MacroGenics, Inc., priority 2015, dated 2019):

B1: DR5 mAb 1: anti-human DR5 monoclonal antibody; VL SEQ ID NO:3, VH SEQ ID NO:8 (antibody, listed as Mus musculus, V domains shown)
VH: EVKFLESGGGLVQPGGSLKLSCVASGFDFSRYWMSWVRQAPGKGLEWIGEINPDSNTINYTPSLKDKFIISRDNAKNTLYLQMTKVRSEDTALYYCTRRAYYGNPAWFAYWGQGTLVTVSS
VL: DIVLTQSPASLAVSLGQRATISCRASKSVSSSGYSYMHWYQQKPGQPPKVLIFLSSNLDSGVPARFSGSGSGTDFTLNIHPVEDGDAATYYCQHSRDLPPTFGGGTKLEIK
modifications: (1)..(121) Anti-DR5 Antibody mAb 1 Heavy Chain Variable Region; (1)..(111) Anti-DR5 Antibody mAb 1 Light Chain Variable Region
B2: DR5 mAb 2: murine anti-human DR5 monoclonal antibody; VL SEQ ID NO:13, VH SEQ ID NO:18 (antibody, listed as Mus musculus, V domains shown)
VH: KVQLQQSGAELVKPGASVKLSCKASGYTFTEYILHWVKQKSGQGLEWIGWFYPGNNNIKYNEKFKDKATLTADKSSSTVYMELSRLTSEDSAVYFCARHEQGPGYFDYWGQGTTLTVSS
VL: DIVMTQSHKFMSTSVGDRVSITCKASQDVNTAVAWYQQKPGQSPKLLIYWASTRHTGVPDRFTGSGSGTDYTLTIKSVQAEDLTLYYCQQHYITPWTFGGGTKLEIK
modifications: (1)..(119) Anti-DR5 Antibody mAb 2 Heavy Chain Variable Region; (1)..(107) Anti-DR5 Antibody mAb 2 Light Chain Variable Region

Tests used:
[1] = tested on: 22RV1; assay: MTS cell proliferation assay; type: cell-based; conditions: 22RV1 (Prostate); 1 μg/ml, ±10 μg/ml αmFc; two days
Method: (§1) Cell lines obtained from ATCC were cultured under standard tissue culture conditions. Each cell line was plated at ˜2×10^4 cells/well (in 96-well plates), and incubated overnight in F12/DMEM media supplemented with 10% FBS. […] Cell viability was determined using Promega CellTiter 96® AQeous Non-Radioactive Cell Proliferation Assay (Cat # G5430) essentially as described in the manufacturer's instructions to assay the amount of soluble formazan produced by cellular reduction of the MTS, which is a measure of the number of viable cells in the culture. Briefly, MTS/PMS regent was added to the wells and the absorbance at 490 nm (referenced at […]) was read in a Molecular Devices ThermoMax microplate reader.
(§2) Similar studies were performed over a range of anti-DR5 mAb concentrations from ˜10^−3 nM to ˜10^2 nM. The data for COLO205 cells is provided in FIG. 13, and are representative of cell lines sensitive to the antibodies of the invention.
(§3) The cytotoxicity of tetravalent DR5-Binding Molecules of the present invention was investigated. […] His-tagged TRAIL (R&D systems) was used as a positive control.
(§4) Similar studies were performed over a range of anti-DR5 mAb concentrations from ˜10^−3 nM to ˜10^2 nM.

[2] = tested on: A498; assay: MTS cell proliferation assay; type: cell-based; conditions: A498 (Kidney); 1 μg/ml, ±10 μg/ml αmFc; two days
Method: as §1, §2, §3, §4

[3] = tested on: AsPC1; assay: MTS cell proliferation assay; type: cell-based; conditions: AsPC1 (Pancreas); 1 μg/ml, ±10 μg/ml αmFc; two days
Method: as §1, §2, §3, §4

[4] = tested on: BT474; assay: MTS cell proliferation assay; type: cell-based; conditions: BT474 (Breast); 1 μg/ml, ±10 μg/ml αmFc; two days
Method: as §1, §2, §3, §4

[5] = tested on: CaKi2; assay: MTS cell proliferation assay; type: cell-based; conditions: CaKi2 (Kidney); 1 μg/ml, ±10 μg/ml αmFc; two days
Method: as §1, §2, §3, §4

[6] = tested on: Calu3; assay: MTS cell proliferation assay; type: cell-based; conditions: Calu3 (Lung); 1 μg/ml, ±10 μg/ml αmFc; two days
Method: as §1, §2, §3, §4

[7] = tested on: ES2; assay: MTS cell proliferation assay; type: cell-based; conditions: ES2 (Ovary); 1 μg/ml, ±10 μg/ml αmFc; two days
Method: as §1, §2, §3, §4

[8] = tested on: HPAFII; assay: MTS cell proliferation assay; type: cell-based; conditions: HPAFII (Pancreas); 1 μg/ml, ±10 μg/ml αmFc; two days
Method: as §1, §2, §3, §4

[9] = tested on: HT29; assay: MTS cell proliferation assay; type: cell-based; conditions: HT29 (Colon); 1 μg/ml, ±10 μg/ml αmFc; two days
Method: as §1, §2, §3, §4

[10] = tested on: Hs700T; assay: MTS cell proliferation assay; type: cell-based; conditions: Hs700T (Pancreas); 1 μg/ml, ±10 μg/ml αmFc; two days
Method: as §1, §2, §3, §4

[11] = tested on: Hs746T; assay: MTS cell proliferation assay; type: cell-based; conditions: Hs746T (Stomach); 1 μg/ml, ±10 μg/ml αmFc; two days
Method: as §1, §2, §3, §4

[12] = tested on: MDA-MB-175VII; assay: MTS cell proliferation assay; type: cell-based; conditions: MDA-MB-175VII (Breast); 1 μg/ml, ±10 μg/ml αmFc; two days
Method: as §1, §2, §3, §4

[13] = tested on: MDA-MB-361; assay: MTS cell proliferation assay; type: cell-based; conditions: MDA-MB-361 (Breast); 1 μg/ml, ±10 μg/ml αmFc; two days
Method: as §1, §2, §3, §4

[14] = tested on: SKOV3; assay: MTS cell proliferation assay; type: cell-based; conditions: SKOV3 (Ovary); 1 μg/ml, ±10 μg/ml αmFc; two days
Method: as §1, §2, §3, §4

[15] = tested on: SW948; assay: MTS cell proliferation assay; type: cell-based; conditions: SW948 (Colon); 1 μg/ml, ±10 μg/ml αmFc; two days
Method: as §1, §2, §3, §4

[16] = biological target: histidine tagged TRAIL (Homo sapiens, UniProt P50591); assay: binding to TRAIL-His coat; conditions: 2 μg/mL biotinylated; 1 μg/mL TRAIL-His coat
Chain of histidine tagged TRAIL (P50591 114-281 limits assumed): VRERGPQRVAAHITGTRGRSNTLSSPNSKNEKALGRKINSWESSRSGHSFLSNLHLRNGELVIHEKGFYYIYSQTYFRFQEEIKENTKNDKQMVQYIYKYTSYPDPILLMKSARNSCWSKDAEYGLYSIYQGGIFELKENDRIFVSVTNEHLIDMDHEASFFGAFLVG
Method: The amount of immobilized biotinylated antibody was assessed.

[17] = tested on: target tumor cells (A549, SKMES, DU145, A375, SKBR3, JIMT); assay: LDH release cytotoxicity with PBMC, comparison of DR5×CD3 diabodies; type: cell-based, human; conditions: VL and VH Domains tested as DR5×CD3 mAb 2 diabodies, 24 hours, 20:1
Method: In order to make such a comparison, a bispecific DR5×CD3 diabody having the structure shown in FIG. 1 containing the VL and VH Domains of these anti-DR5 antibodies and the VL and VH Domains of CD3 mAb 2 were prepared essentially as described above. The first and second The prepared diabodies were designated “DR5 mAb 1×CD3 mAb 2”; “DR5 mAb 2×CD3 mAb 2”; “DR5 mAb 3×CD3 mAb 2”; and “DR5 mAb 4×CD3 mAb 2”.
Target tumor cells were incubated with one of these diabodies or with the control diabody (4-4-20×CD3 mAb 2) in the presence of peripheral blood mononuclear cells (PBMC) and target tumor cells for 24 hours at an effector to target cell ratio of 20:1. The percentage cytotoxicity was determined by measuring the release of lactate dehydrogenase (LDH) into the media by damaged cells.
The employed target tumor cells were: A549 adenocarcinomic human alveolar basal epithelial cells (FIG. 10A), SKMES human lung cancer cells (FIG. 10B), DU145 human prostate cancer cells (FIG. 10C), A375 human malignant melanoma cells (FIG. 10D), SKBR3 human HER2-overexpressing breast carcinoma cells (FIG. 10E), and JIMT human breast carcinoma cells (FIG. 10F).

[18] = tested on: MCF7; assay: […]-GLO cell viability assay with vorinostat; type: cell-based; conditions: MCF7 (Breast); 1 μg/ml + 10 μM Vorinostat
[19] = tested on: HPAFII; assay: […]-GLO cell viability assay with vorinostat; type: cell-based; conditions: HPAFII (Pancreas); 1 μg/ml + 10 μM Vorinostat
[20] = tested on: A549; assay: […]-GLO cell viability assay with vorinostat; type: cell-based, human; conditions: A549 (Lung); 1 μg/ml + 10 μM Vorinostat
[21] = tested on: LNCap; assay: […]-GLO cell viability assay with vorinostat; type: cell-based, human; conditions: LNCap (Prostate); 1 μg/ml + 10 μM Vorinostat
[22] = tested on: SKBR3; assay: […]-GLO cell viability assay with vorinostat; type: cell-based, human; conditions: SKBR3 (Breast); 1 μg/ml + 1 μM Vorinostat

amount of immobilized biotinylated antibody [16]	Molecule	% Inhibition (Average) [1] [%]	% Inhibition (Average) [2] [%]	% Inhibition (Average) [3] [%]	% Inhibition (Average) [4] [%]	% Inhibition (Average) [5] [%]	% Inhibition (Average) [6] [%]	% Inhibition (Average) [7] [%]	% Inhibition (Average) [8] [%]	% Inhibition (Average) [9] [%]	% Inhibition (Average) [10] [%]	% Inhibition (Average) [11] [%]	% Inhibition (Average) [12] [%]	% Inhibition (Average) [13] [%]	% Inhibition (Average) [14] [%]	% Inhibition (Average) [15] [%]	potency in inducing cytotoxicity versus reference DR5 mAbs [17]	Net Gain (Average % Growth Inhibition) [18] [%]	Net Gain (Average % Growth Inhibition) [19] [%]	Net Gain (Average % Growth Inhibition) [20] [%]	further results
0.007	B1	3.03	0.89	1.73	2.26	0.55	2.86	3.31	2.86	0.68	1.21	2.83	1.6	1.54	3.16	3.53	more potent	4.55	1.75	6.48	Net Gain (Average % Growth Inhibition) [21]: 3.81%; Net Gain (Average % Growth Inhibition) [22]: 0.69%
0.008	B2	3.89	1.92	0.13	2.84	2.64	2.06	1.88	2.68	0.87	0.99	1.25	1.09	1.98	2.02	1.76	more potent	5.00	2.86	6.48	Net Gain (Average % Growth Inhibition) [21]: 4.49%; Net Gain (Average % Growth Inhibition) [22]: 0.69%
